The nature of this data set: label from the status in PepcDB records.
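Further: failed if final PepcDB status was selected cloned or expressed and not failed if soluble or beyond.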

Consider “MKIFKKSDISGIFHELGILISTIGFIMLLPSFIGIYFHEPFFYFLFPSLFFMILGLLINKITKPISVKLKHAMVISALAWLMASLIGAIPFYIGIEYFSYLDGVFESMSAWTTTGFSIVGDVESLPRTLQFWRSFEQWIGGVGVLAMVITILSKAGASAYYRAEAREEKIMPSTIGTIKKIWQIYLLYTTIGICLLYLSGLNLWSALNICMCGISTGGMSISNQSFPFNNFAKIIMTLIMYIGGVVSFSVHHNVLTGRRVDDIQTKTSIPILFFAAFVITLTSGIDPLDSLFTVVSAMTSTGFSSVQISSLTNISIAVLIFVMAIGGATGTTTGGIKLIRLVIMAKGFYYRLKEVVSPGNAIIYKKIGKNQLSDFLILDAFIIAFAYIIHYLFGTLVLISLGYDPFLSVFESVSLVANMGLSVDIVNHSLHPIAKILGVFSMWVGRLEIIPIYVLIILPLYLKLKDVGKNKISKNRKL”, for which the protein production entry is listed as “failed”.

Take “MKIGIVIPAHNEEQHLSACLQSIQQAIQHTGHEQVEILVVLDSCTDQSRSVVESHQVNWIECNFACVGKARDLGIRQLIDQGVIWVACTDADTIVDSDWILCQMLHQPTDAICGVVTLDDLSHLSVQQQQKYLAHYQDSMDHQHIHGANLSFSAEAYIQAGGFEPIPCHEDVSLIEKFIKQCCKVTRSNLVRVTTSSRLNGRAPEGLSYFLKHL”: the protein production entry is on record as “failed”.

On to “MKIINIGVLAHVDAGKTTLTESLLYTSGAIAESGSVDTGTTRTDTTFLERQRGITIQTAVTSFQWKDIKVNIIDTPGHMDFLAEVYRSLSVLDGAILLISARDGVQAQTRILFHALNKMGIPTIFFINKIDQNGIDLSTVYQDIKEKLSMEIIIKQKVELHPNMCVMSCTEPEQWDVVIEGNDYLLEKYTLGKSLEILELEQEEIRRFQNCSLYPVYHGSAKSNIGIEQLIEVITNKFYSSTYRKKSELCGNVFKIEYSEERQRLAYVRLYGGILHLRDSVRISEKEKIKITEMYTSINGELCKIDKAYSGEIVILQNEFLKLNSVLGDTKLLPQRERIENPLPLLQTTVEPSKPQQREMLLDALLEISDSDPLLQYYVDSTTHEIILSFLGKVQMEVTCALLQEKYHVEVKIKKPTVIYMERPLKKAEYTIHIEVPPNPFWASIGLSVAPLPLGSGVQYESSVSLGYLNQSFQNAVMEGIRYGCEQGLYGWNVTDCKICFKYGLYYSPVSTPADFRMLAPIVLEQVLKKAGTELLEPYLSFKIYAPQEYLSRAYNDAPKYCANIVDTQLKNNEVILSGEIPARCIQEYRNDLTFFTNGRSVCLTELKGYYVTTGESVCQPRRPNSRIDKVRYMFNKIT”, for which the protein production result is “failed”.

For “MKIITIEEHFESEVITNEINKVTGNLVSGQVSPEMFQYMQKELPSAMEMQDTEKRLAFMDQHGIDMQVLSYGNSSPQNLGPKISVALCKRANDELAKVIQQNPTRFAGFAVLPVGSPEDAAIELKRAVEELGFKGALVKGQFENKYFDNSFYYPIFEMAEKLDVPISFHPSFIPEPITEQYFASDAWSDVVTGVFSSAGFGWHMDVGIQVVRMILSGIFDKLPNLKIITGHLGEMVPMFLNRMDDTLGHWTTLERKISDYYRTNVYVTPSGLLYKNEWKFLLNELDENHLIYALDYPFVKTENAGTFLDTLDLTDEVKAKIAHENAEKLLHL”, the protein production entry was “not failed”.

For the sequence “MKILNIFDAVRDGTFQDFKNFYEGNINVISGNLDLNLLCMAVTNDKNPEEKLQIIKFLFAEGIDVNYATQKEKRNALHLFYFCVLRPTIEYEMEITNLFIKHGVNVNATDKYNAIPLKYAITINNLPTSDNKEMYQLLLNKGSDYNLKDGFGKSCLDYAKEYSWRNDFLDIVKEYENSKK”, the protein production entry is “failed”.

Consider “MKILSIHDLQIIRKRAEHHLSLREESNEKVSEKCCGLASGTTHLQILICGGTGCKASSSQGITENLQKAIERNGITDKVDVITVGCFGFCEKGPIVKIIPDNTFYTQVTPEDAEEIISEHIIGGRRIERLLYIDPKTEQTVSDSKHMDFYRKQLRIALRNCGFIDSENIEEYIAREGYFALADCLLNKQPADVIDIIKRSGLRGRGGGGFPTGLKWEFASKQVSNVKYVVCNADEGDPGAFMDRSIMEGDPHSIVEAMCICGYSIGSSKGLVYIRAEYPLAINRLKKAIEQAREYGLLGDHILGTDFSFDIEIRYGAGAFVCGEETALIHSMEGKRGEPTLKPPFPAESGYLGKPTNVNNVETLANIPIILTKGAEWFASIGTERSKGTKVFALAGKINNVGLIEVPMGTTLREVIYEIGGGIKGGKKFKAVQTGGPSGGCLTEKHLDTPIDFDNLLAAGSMMGSGGMIVMDEDDCMVSVARFYLDFTVEESCGKCTPCRIGNKRLLELLNKITEGRGTEKDLDTLATLGRVIKDTALCGLGQTSPNPVLSTLDNFRDEYLEHVRDKTCRAKQCKSLLTYTINPELCIGCHLCAKNCPADAISGLVRKPHVIHPEKCIKCGMCMARCKFKAILVC”, for which the protein production entry is “failed”.

For “MKILVIGAGPAGLVFASQLKQARPLWAIDIVEKNDEQEVLGWGVVLPGRPGQHPANPLSYLDAPERLNPQFLEDFKLVHHNEPSLMSTGVLLCGVERRGLVHALRDKCRSQGIAIRFESPLLEHGELPLADYDLVVLANGVNHKTAHFTEALVPQVDYGRNKYIWYGTSQLFDQMNLVFRTHGKDIFIAHAYKYSDTMSTFIVECSEETYARARLGEMSEEASAEYVAKVFQAELGGHGLVSQPGLGWRNFMTLSHDRCHDGKLVLLGDALQSGHFSIGHGTTMAVVVAQLLVKALCTEDGVPAALKRFEERALPLVQLFRGHADNSRVWFETVEERMHLSSAEFVQSFDARRKSLPPMPEALAQNLRYALQRLEHHHHHH”, the protein production entry is “not failed”.

For “MKILYIVLDGAADSPTSPRKTLEEASKPNIDSLGSHAVCGMVYTVKPGVAPQSDYATLSLLGYNPDEYYPGRGPLEAFGAGIEMRRGDIALRANFATVDPGTLRIIDRRVGRSLTSREARELASAVDGMELEDGEGTALFRATIGHRGVLVLRHRSKPLSDAISNTDPAYERRGRFSVALEKYEPFIKLSNPLVEDEAAVLAARMLNEFTLKAVEILDSHPVNLAREKRGLLKANAILSRDAGGLPEEKPPSFQERFGLRGASIVEMVVERGISRYIGLDDIRVEIEGRAREEVYREEAARAVEALETHDLVYVHLKGPDEPGHDGSFEGKIRAVEDIDKHFFAPLLDRLSSAGLEPAFVVTSDHATPWDVGAHSGDPVPLMISHQSIQ”, the protein production entry is “failed”.

In the case of “MKINKIDTRHGTANQSTFSHGNCLPYTGFPWGMNYFSPSTGAARGAWWFHPEDRTFEGYRITHQPSPWMGDFSHLTMTPVAGPLPETSLWHTVSSYRPEESTFNPTQLKITQLRYQITSQLIPSMYGGILSMNYQNLSLKDNGLMLHLPGSYELQQLDDYSLELSIINFAGCEDENFTFYLKFTADQPFVLSGNLSDEDSSVRLDFKAAKQVQIHFATSFISKEQAALNLEREQDNSAETYLENAESAWNNLFSRIEIEHHNQQEVSTFYHNLYRSFLFPQTFYEFDQEHQKIHYDTSSKTVKKGPLYTNNGFWDTFRTVYPLYSLIAVDEYGDMLEGFLNSYRATGFLPKWLSPDERGLMPGTLIDAVIADAASKNIRPDLMPEFLEAMKKGATSQSENSNYGRRGTKDYLKLGYVPLTHHESVNHTLDYAFSDYCISQVAKQTGDKEISDFYAHQAKDYQNIFDSETGFMRAKDADGNFRADFLDIRWGRDYAEGSAWQTSWSVLHDFAGLIKLHGSRENFENKLIELCNQRPNFNVEGYGFEIHEMSEMAAIEFGQVAISNQPSFHYPYLFSYIGKPWMATPLIKNLLTETFNDSPKGYPGDEDNGTMAAWYIFSSLGFYPVTAASNQYVLGIPLWDKARINLSSGQQLTILAEPNAPQQVFVNQITFTDKKVNDTFIKHEELIKGGTLKFDLGIVPNPLKYTNEQLPYSLTEN”, the protein production entry is reported as “failed”.

Regarding “MKIQDLLRKDIMILDLQAISKEVAIDEMITKLVEKDIVHDFDVFKKSIMTREEQTSTGLGDGIAMPHSKNIVVDKPAVLFAKSNKGVDYKALDGQPTDLFFMIAAPQGANDTHLAALAELSQYLLKDGFADKLRAAATPEAVIAVFDEASTAKEEV”, the protein production entry is listed as “failed”.

For “MKIRHVSHQAWLLFLVALLVLGSGLGLRDPHPADEPRFALVAKQMVDSGEWLFPHRGNELYSDKPPMLMWLQAAFYTLFGNLKVAFLLPSLLAALGTLVCVYDLGRRLWTRRIGLYAAYALLFTFHFTYQAKRAQIDALVVFFITFANYGLLRHLLFGGHWRWWVLGWFAAGLGTITKGVGALALLIVLPAAAASLAGWPRVRVHVRDVRFWLGPLGFLVAVSLWLVPMVMTALSAQQPEYRAYLNDILLRQTFGRYTKSWDHAQPPWYFLQVMLVMWIPTLLALPWALPAWWRRMRRRDPRYLLPLAWCVLLLVFFSIPSGKRDVYMLPALPMVCLALAPLLPGLLRKRACSRLLLAFGVLLVLVLAVFGAGLLIRSDWQARMMEGTTLILEDVRVIAWGGIAVASWGVFSLLAFSQRRPVVAVFSVLTTLWLVFGLVLMPVVNDSSSARGVMMIAGKRIGPAAELGLVAWKEQNLLMADRSVATFGFLVPWDEQLRRGIAWQVQRPRQRWLLVQEAAMFGCINRSASVFVGSSNRRAWWLVPAWAVHGACIMTQAEHDRLSKQ”, the protein production result is on record as “failed”.

As for “MKIRKLTNEEIKGACAFAVNIYNIAIRGCFRTLDCHRYFDEYMDADRLTDEERTGALVVFGAFDSNVLCGVCGMTNEGHITMLYVHPQYLRRGIGKKLLERVRIYARMQLKLMQVSVNAMPAYTAEYFMHVGFKSAYQGGFCNGQGDMYVPMTAKSIYQVEYTPRHIADKTFIAISVGFTCLVFVSGVIYAVCAGLTP”, the protein production entry is “failed”.

Consider “MKIRNACKEDAQQLIAIYASYVEKTAITFEYQVPSLEEFEERIEKTKQKFPYLVAEEEGILQGYAYASVYYNHAAYDWTVELSIYIKEEARGKHIGSQLYASLERNLQEAGFVNLLVCIALPNNASLTFHKKHGYEQVAHFKKVGYKFDKWYDIVWMQKRLLD”, for which the protein production result is on record as “failed”.

Regarding “MKIRSADASDLDSLLRLNYQIGVMHFENAPESFVKPSSEEKEFLLKALNDQSRLFLVAEISGDVVGFVTATVTQNEAIPFLVKTPICRVGTIVVDENARVSGIGTQLMARCNDWAKSQGAEQIRLEVMAFNKSAQSFYVKLGFEEQSKTMWKTVN”, the protein production entry is recorded as “failed”.

As for “MKISPLCPSCLLGRVYYEAKLVTDDEDLISQCVDESLKILAENYSSAPINAHLATRIHRRVYEILGVEDPYAEVKARANEVARQVLPLAKEIVEGSDDPFKTAVIVSIVGNNFDYGVQGHKVVEEEFRDFLKRKVQEGLKINDTERIKELSSGKVVYLTDNAGEIFFDTLLMKEIKRRCEKLTAVVRGRPIISDATIEDARLARVDKIADELLTNGKGAIGIIMDELPDETRKALEEADLIVAKGMANYECLSDGSLKPIAFLLTAKCEPVARDIGVNVGDMVAKVVE”, the protein production entry is recorded as “not failed”.

For “MKISVIISNYNYARYLSRAINSVLAQTHSDIEIVIVDDGSTDNSRDVITQLQEQAPDKIKPIFQANQGQGGAFNAGFAAATGEVVAFLDADDVWKPHKLQRIVEVFQTSDVVGVMHHLDIIDGNDKTIDQASTQGPKLSEDLASVILQTGNAWCFPPTSGLAYRREVLEKVFPIDPVKWRIWADGCIIYCTAFLGKIKTLQENLAYYRIHGANNHMSAASATSEQEAKSQAGIEMTNQYINDFLVRIGYGARVDLSRNLQYRRTKYYQRSQWDLREVWGISRLILGWPFYSGQERAYYLARFLFKSGKFLLRSDVHTESTTI”, the protein production entry is given as “failed”.

On to “MKISVITINYNNGEQLEATIQSVVSNVTVLRELLGEKAEYIVIDGGSVDCSVSVLQKYSEYISYWISEKDKGIYHAMNKGISVAQGEYCFFLNSGDTFYEDDTLKKALLFLKEDFVCGNAVLKYAGGINEWSAPEIVNTLFFMQRFSVCHQSLFIRTELLKSHPYNETLMIVADYEQMFYEIAVNHRSYKKIDLTICYYGCDGVSSDHEKADAEKRSVINEFRYLGYIEPDELWNVVSKLKIGTRKYRLLLSLAKCLTSSPKYWVRLEHHHHHH”, for which the protein production entry is given as “not failed”.

The record behind these values is a protein production outcome set (Wang et al. 2014).
